From article PMC10397247

What was measured:
4H278-AA = biological target: T1, 4H278-AA; test: two-hybrid library CCmax; conditions: mean of both orientations;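 further: natural log of median RNA to DNA barcode read ratio; higher means stronger binding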
T1 chain: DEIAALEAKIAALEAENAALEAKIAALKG

4H2873-AA = biological target: T2, 4H2873-AA; test: two-hybrid library CCmax; conditions: mean of both orientations;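 further: natural log of median RNA to DNA barcode read ratio; higher means stronger binding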
T2 chain: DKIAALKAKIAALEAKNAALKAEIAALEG

4H87-AA = biological target: T3, 4H87-AA; test: two-hybrid library CCmax; conditions: mean of both orientations;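 further: natural log of median RNA to DNA barcode read ratio; higher means stronger binding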
T3 chain: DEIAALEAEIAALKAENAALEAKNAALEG

4H775-AA = biological target: T4, 4H775-AA; test: two-hybrid library CCmax; conditions: mean of both orientations;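 further: natural log of median RNA to DNA barcode read ratio; higher means stronger binding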
T4 chain: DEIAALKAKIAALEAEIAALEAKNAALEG

4H_APH = biological target: T5, 4H_APH; test: two-hybrid library CCmax; conditions: mean of both orientations
T5 chain: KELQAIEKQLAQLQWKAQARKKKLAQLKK

4H2985-AA = biological target: T6, 4H2985-AA; test: two-hybrid library CCmax
T6 chain: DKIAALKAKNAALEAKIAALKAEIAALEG

4H4038-AA = biological target: T7, 4H4038-AA; test: two-hybrid library CCmax; conditions: mean of both orientations
T7 chain: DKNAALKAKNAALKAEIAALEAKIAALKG

4H510-AA = biological target: T8, 4H510-AA; test: two-hybrid library CCmax; conditions: mean of both orientations
T8 chain: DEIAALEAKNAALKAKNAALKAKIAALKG

4H3590-AA = biological target: T9, 4H3590-AA; test: two-hybrid library CCmax; conditions: mean of both orientations
T9 chain: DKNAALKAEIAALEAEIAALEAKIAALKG

4H2736-AA = biological target: T10, 4H2736-AA; test: two-hybrid library CCmax; conditions: mean of both orientations
T10 chain: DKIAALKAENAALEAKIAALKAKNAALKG

4H390-AA = biological target: T11, 4H390-AA; test: two-hybrid library CCmax; conditions: mean of both orientations
T11 chain: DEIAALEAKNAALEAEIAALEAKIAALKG

4H_BCR = biological target: T12, 4H_BCR; test: two-hybrid library CCmax; conditions: mean of both orientations
T12 chain: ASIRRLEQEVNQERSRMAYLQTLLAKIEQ

O11-AA = biological target: T13, O11-AA; test: two-hybrid library CCmax; conditions: mean of both orientations
T13 chain: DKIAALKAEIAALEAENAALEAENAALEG

4H3625-AA = biological target: T14, 4H3625-AA; test: two-hybrid library CCmax; conditions: mean of both orientations
T14 chain: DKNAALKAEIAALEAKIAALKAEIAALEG

4H2758-AA = biological target: T15, 4H2758-AA; test: two-hybrid library CCmax; conditions: mean of both orientations
T15 chain: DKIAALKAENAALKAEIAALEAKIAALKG

4H816-AA = biological target: T16, 4H816-AA; test: two-hybrid library CCmax; conditions: mean of both orientations
T16 chain: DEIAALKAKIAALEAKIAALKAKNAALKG

GCN2_T = test: two-hybrid library CCmax; conditions: mean of both orientations
4H3409-AA = biological target: T17, 4H3409-AA; test: two-hybrid library CCmax; conditions: mean of both orientations
T17 chain: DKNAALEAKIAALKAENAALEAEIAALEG

4H2888-AA = biological target: T18, 4H2888-AA; test: two-hybrid library CCmax; conditions: mean of both orientations
T18 chain: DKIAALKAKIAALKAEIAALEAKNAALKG

4H2705-AA = biological target: T19, 4H2705-AA; test: two-hybrid library CCmax
T19 chain: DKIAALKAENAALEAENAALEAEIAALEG

O14-AA = biological target: T20, O14-AA; test: two-hybrid library CCmax; conditions: mean of both orientations
T20 chain: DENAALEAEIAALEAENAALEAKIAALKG

4H451-AA = biological target: T21, 4H451-AA; test: two-hybrid library CCmax; conditions: mean of both orientations
T21 chain: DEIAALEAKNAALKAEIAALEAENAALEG

4H3587-AA = biological target: T22, 4H3587-AA; test: two-hybrid library CCmax; conditions: mean of both orientations
T22 chain: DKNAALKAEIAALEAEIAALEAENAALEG

O13-AA = biological target: T23, O13-AA; test: two-hybrid library CCmax; conditions: mean of both orientations
T23 chain: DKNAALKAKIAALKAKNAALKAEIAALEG

4H384-AA = biological target: T24, 4H384-AA; test: two-hybrid library CCmax; conditions: mean of both orientations
T24 chain: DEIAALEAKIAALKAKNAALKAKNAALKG

4H_GCN4 = test: two-hybrid library CCmax; conditions: mean of both orientations
Sequence of 4H_GCN4 (chain, as listed by the source): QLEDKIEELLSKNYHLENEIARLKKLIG

4H43-AA = biological target: T25, 4H43-AA; test: two-hybrid library CCmax; conditions: mean of both orientations
T25 chain: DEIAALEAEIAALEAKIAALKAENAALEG

4H337-AA = biological target: T26, 4H337-AA; test: two-hybrid library CCmax; conditions: mean of both orientations
T26 chain: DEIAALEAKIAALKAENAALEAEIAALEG

4H3940-AA = biological target: T27, 4H3940-AA; test: two-hybrid library CCmax; conditions: mean of both orientations
T27 chain: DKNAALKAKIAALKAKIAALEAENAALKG

4H3905-AA = biological target: T28, 4H3905-AA; test: two-hybrid library CCmax; conditions: mean of both orientations
T28 chain: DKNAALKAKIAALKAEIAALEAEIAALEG

4H3134-AA = biological target: T29, 4H3134-AA; test: two-hybrid library CCmax; conditions: mean of both orientations
T29 chain: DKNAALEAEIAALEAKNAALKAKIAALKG

4H3049-AA = biological target: T30, 4H3049-AA; test: two-hybrid library CCmax; conditions: mean of both orientations
T30 chain: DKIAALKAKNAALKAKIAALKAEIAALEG

4H780-bA = biological target: T31, 4H780-bA; test: two-hybrid library CCNG1
T31 chain: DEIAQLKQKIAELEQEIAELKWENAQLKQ

4H4073-bA = biological target: T32, 4H4073-bA; test: two-hybrid library CCNG1
T32 chain: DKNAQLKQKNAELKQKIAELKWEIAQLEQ

4H754-bA = biological target: T33, 4H754-bA; test: two-hybrid library CCNG1; conditions: mean of both orientations
T33 chain: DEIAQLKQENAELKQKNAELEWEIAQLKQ

4H346-bA = biological target: T34, 4H346-bA; test: two-hybrid library CCNG1
T34 chain: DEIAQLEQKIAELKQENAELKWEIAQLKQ

4H3782-bA = biological target: T35, 4H3782-bA; test: two-hybrid library CCNG1
T35 chain: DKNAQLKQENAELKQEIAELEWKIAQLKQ

4H855-bA = biological target: T36, 4H855-bA; test: two-hybrid library CCNG1
T36 chain: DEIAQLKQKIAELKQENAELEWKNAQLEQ

4H883-bA = biological target: T37, 4H883-bA; test: two-hybrid library CCNG1
T37 chain: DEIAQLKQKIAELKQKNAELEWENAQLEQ

4H607-bA = biological target: T38, 4H607-bA; test: two-hybrid library CCNG1
T38 chain: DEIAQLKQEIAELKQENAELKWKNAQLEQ

4H457-bA = biological target: T39, 4H457-bA; test: two-hybrid library CCNG1
T39 chain: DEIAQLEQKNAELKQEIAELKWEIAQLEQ

4H568-bA = biological target: T40, 4H568-bA; test: two-hybrid library CCNG1
T40 chain: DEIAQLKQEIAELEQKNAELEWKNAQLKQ

4H575-bA = biological target: T41, 4H575-bA; test: two-hybrid library CCNG1
T41 chain: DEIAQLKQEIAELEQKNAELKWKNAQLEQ

4H454-bA = biological target: T42, 4H454-bA; test: two-hybrid library CCNG1
T42 chain: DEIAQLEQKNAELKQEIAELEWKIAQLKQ

4H683-bA = biological target: T43, 4H683-bA; test: two-hybrid library CCNG1
T43 chain: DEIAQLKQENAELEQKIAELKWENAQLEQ

4H687-bA = biological target: T44, 4H687-bA; test: two-hybrid library CCNG1
T44 chain: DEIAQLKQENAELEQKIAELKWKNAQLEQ

4H797-bA = biological target: T45, 4H797-bA; test: two-hybrid library CCNG1
T45 chain: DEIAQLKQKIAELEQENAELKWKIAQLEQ

4H908-bA = biological target: T46, 4H908-bA; test: two-hybrid library CCNG1
T46 chain: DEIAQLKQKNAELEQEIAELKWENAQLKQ

4H3855-bA = biological target: T47, 4H3855-bA; test: two-hybrid library CCNG1
T47 chain: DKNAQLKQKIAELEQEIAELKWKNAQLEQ

4H967-bA = biological target: T48, 4H967-bA; test: two-hybrid library CCNG1
T48 chain: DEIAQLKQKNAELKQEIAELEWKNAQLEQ

4H918-bA = biological target: T49, 4H918-bA; test: two-hybrid library CCNG1
T49 chain: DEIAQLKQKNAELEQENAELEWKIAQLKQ

4H3926-bA = biological target: T50, 4H3926-bA; test: two-hybrid library CCNG1
T50 chain: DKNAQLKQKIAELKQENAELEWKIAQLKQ

P7bH1 = biological target: T51, P7bH1; test: two-hybrid library CCNG1
T51 chain: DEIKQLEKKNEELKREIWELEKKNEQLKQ

4H3427-bA = biological target: T52, 4H3427-bA; test: two-hybrid library CCNG1
T52 chain: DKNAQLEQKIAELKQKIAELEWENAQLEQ

4H72-bA = biological target: T53, 4H72-bA; test: two-hybrid library CCNG1
T53 chain: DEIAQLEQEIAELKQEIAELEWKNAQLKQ

4H968-bA = biological target: T54, 4H968-bA; test: two-hybrid library CCNG1
T54 chain: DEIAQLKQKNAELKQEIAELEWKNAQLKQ

4H717-bA = biological target: T55, 4H717-bA; test: two-hybrid library CCNG1
T55 chain: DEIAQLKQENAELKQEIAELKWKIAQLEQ

4H4001-bA = biological target: T56, 4H4001-bA; test: two-hybrid library CCNG1
T56 chain: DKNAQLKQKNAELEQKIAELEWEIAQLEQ

O15-bN = biological target: T57, O15-bN; test: two-hybrid library CCNG1
T57 chain: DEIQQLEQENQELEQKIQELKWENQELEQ

4H953-bA = biological target: T58, 4H953-bA; test: two-hybrid library CCNG1
T58 chain: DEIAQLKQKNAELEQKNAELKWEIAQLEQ

DKIAALKAENAALEAENAALEAEIAALEG [4H2705-AA] was tested, and the interaction score (4H278-AA) was -0.473, the interaction score (4H2873-AA) was -1.27 and the interaction score (4H87-AA) was -1.62. It also gave an interaction score (4H775-AA) of -1.89, an interaction score (4H_APH) of -1.6 and an interaction score (4H2985-AA) of -0.31. It also gave an interaction score (4H4038-AA) of 0.153, an interaction score (4H510-AA) of 1.88 and an interaction score (4H3590-AA) of -1.6. It also gave an interaction score (4H2736-AA) of -1.45, an interaction score (4H390-AA) of -0.544 and an interaction score (4H_BCR) of -1.75. The interaction score (O11-AA) was -1.81, the interaction score (4H3625-AA) was -2.01 and the interaction score (4H2758-AA) was -1.01. For the same binder, the interaction score (4H816-AA) was -1.52, the interaction score (GCN2_T) was -1.4 and the interaction score (4H3409-AA) was -1.62. The interaction score (4H2888-AA) was -1.97, the interaction score (4H2705-AA) was -1.4 and the interaction score (O14-AA) was -1.68. The interaction score (4H451-AA) was -1.84, the interaction score (4H3587-AA) was -1.78 and the interaction score (O13-AA) was -1.17. The interaction score (4H384-AA) was 1.45, the interaction score (4H_GCN4) was -1.71 and the interaction score (4H43-AA) was -1.82. The interaction score (4H337-AA) was -0.896, the interaction score (4H3940-AA) was -1.62 and the interaction score (4H3905-AA) was -1.49. The interaction score (4H3134-AA) was -0.0637 and the interaction score (4H3049-AA) was 1.67.

DKNAQLEQKIAELKQKIAELEWENAQLEQ [4H3427-bA] showed an interaction score (4H780-bA) of -1.09, an interaction score (4H4073-bA) of 0.792 and an interaction score (4H754-bA) of -0.767. The interaction score (4H346-bA) was -1.15, the interaction score (4H3782-bA) was -0.499 and the interaction score (4H855-bA) was -1.16. It also gave an interaction score (4H883-bA) of -0.625, an interaction score (4H607-bA) of -0.868 and an interaction score (4H457-bA) of -1.11. It also gave an interaction score (4H568-bA) of 0.738, an interaction score (4H575-bA) of 0.0418 and an interaction score (4H454-bA) of -0.617. It also gave an interaction score (4H683-bA) of -0.996, an interaction score (4H687-bA) of -1.79 and an interaction score (4H797-bA) of -0.827. The interaction score (4H908-bA) was -0.823, the interaction score (4H3855-bA) was -0.947 and the interaction score (4H967-bA) was -1.02. The interaction score (4H918-bA) was -0.926, the interaction score (4H3926-bA) was -0.817 and the interaction score (P7bH1) was -0.632. It also gave an interaction score (4H3427-bA) of 0.0593, an interaction score (4H72-bA) of 0.449 and an interaction score (4H968-bA) of -0.904. The interaction score (4H717-bA) was -1.4, the interaction score (4H4001-bA) was -0.314 and the interaction score (O15-bN) was -0.0232. It also gave an interaction score (4H953-bA) of -1.25.
